Reference: PMC5216119, “An allosteric conduit facilitates dynamic multisite substrate recognition by the SCF^Cdc4 ubiquitin ligase” (Nature Communications, 2017)
Read-outs that look alike come from different tables or passages of the source. Square brackets hold non-standard residues; d marks the D form. Ends that are not written are not given here. Peptide text beside a SMILES is read from it. pT = C[C@@H](OP(=O)(O)O)[C@H](N)C(=O)O; pS = N[C@@H](COP(=O)(O)O)C(=O)O

Tests used:
R655Q Cdc4^WD40 [1] = biological target: T1, R655Q Cdc4^WD40 (Saccharomyces cerevisiae, UniProt P07834, R655Q); experiment: Intrinsic Trp fluorescence binding, R655Q Cdc4^WD40; design: species or system yeast; conditions: in vitro Trp fluorescence
T1 construct: Cdc4^WD40 (residues 367-744) was expressed from pET-Sumo (Invitrogen); His-SUMO (pET-Sumo vector) (N, cleaved yes); made in house; host or cells: Escherichia coli (host printed only for the NMR samples)

R664Q Cdc4^WD40 [2] = biological target: T2, R664Q Cdc4^WD40 (Saccharomyces cerevisiae, UniProt P07834, R664Q); assay type: binding, yeast; conditions: in vitro Trp fluorescence
T2 construct: Cdc4^WD40 (residues 367-744) was expressed from pET-Sumo (Invitrogen); His-SUMO (pET-Sumo vector) (N, cleaved yes); made in house; host or cells: Escherichia coli (host printed only for the NMR samples)
Description: We assessed the contribution of the allosteric pocket to substrate interactions by mutation of positively charged Arg655 and Arg664 residues, both of which are required for SCF-I2 inhibition. We generated Arg655Gln and Arg664Gln substitution mutants to minimize disruptive steric effects on the allosteric pocket and WD40 domain.
The binding affinities of three different peptides (Sic1^20pS69, Sic1^20pS80 and Sic1^20pS69/S80) for wild-type and mutant (Arg664Gln) Cdc4^WD40 were measured by intrinsic Trp fluorescence-binding experiments. The measurements were carried out by using an ATF 105 spectrometer (AVIV Instruments, Lakewood, NJ) equipped with an automatic titrator. The binding of the peptide fragments were monitored by using intrinsic tryptophan fluorescence with an excitation wavelength of 298 nm and an emission wavelength of 366 nm. All measurements were performed in 50 mM Tris, 150 mM NaCl, 5 mM DTT, pH 7.5 at 20 °C. The concentration of Cdc4 was 0.5 μM for all measurements. […] Association constants were calculated using the formula Ka=1/Kd. Prism 4.0 software (GraphPad Software, San Diego, CA) was used for statistical analysis (non-paired Student t test), and P values <0.05 were considered significant. Each experiment was repeated at least three times.

R655Q Cdc4^WD40 [3] = biological target: T3, R655Q Cdc4^WD40 (yeast, UniProt P07834 367-744, R655Q); experiment: other fluorescence titration; intrinsic Trp fluorescence (excitation 298 nm, emission 366 nm); 0.5 μM Cdc4, ligand titrated; 50 mM Tris, 150 mM NaCl, 5 mM DTT, pH 7.5, 20 °C; 1:1 stoichiometry assumed
T3 construct: Cdc4, yeast F-box protein, WD40 domain, residues 367-744, with Arg655Gln in the allosteric pocket; also called Arg655Gln Cdc4^WD40; source: E. coli, purified as the wild type (Ni-NTA, Ulp protease, Ni-NTA, Superdex 200)
T3 sequence (looked up): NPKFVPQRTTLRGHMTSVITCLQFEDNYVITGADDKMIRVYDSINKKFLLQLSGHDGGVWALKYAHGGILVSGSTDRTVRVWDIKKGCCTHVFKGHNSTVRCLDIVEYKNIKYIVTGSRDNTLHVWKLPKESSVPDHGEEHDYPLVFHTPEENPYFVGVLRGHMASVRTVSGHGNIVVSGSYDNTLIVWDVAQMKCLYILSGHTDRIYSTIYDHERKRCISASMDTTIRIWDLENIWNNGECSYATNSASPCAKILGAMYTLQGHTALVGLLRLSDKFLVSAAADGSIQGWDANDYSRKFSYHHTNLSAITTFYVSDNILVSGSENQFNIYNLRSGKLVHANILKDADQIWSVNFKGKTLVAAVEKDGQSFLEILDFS

R664Q Cdc4^WD40 [4] = biological target: T4, R664Q Cdc4^WD40 (yeast, UniProt P07834 367-744, R664Q); experiment: as above
T4 construct: Cdc4, yeast F-box protein, WD40 domain, residues 367-744, with Arg664Gln in the allosteric pocket; also called Arg664Gln Cdc4^WD40; mutant (Arg664Gln) Cdc4^WD40; source: E. coli, purified as the wild type (Ni-NTA, Ulp protease, Ni-NTA, Superdex 200)
T4 sequence (looked up): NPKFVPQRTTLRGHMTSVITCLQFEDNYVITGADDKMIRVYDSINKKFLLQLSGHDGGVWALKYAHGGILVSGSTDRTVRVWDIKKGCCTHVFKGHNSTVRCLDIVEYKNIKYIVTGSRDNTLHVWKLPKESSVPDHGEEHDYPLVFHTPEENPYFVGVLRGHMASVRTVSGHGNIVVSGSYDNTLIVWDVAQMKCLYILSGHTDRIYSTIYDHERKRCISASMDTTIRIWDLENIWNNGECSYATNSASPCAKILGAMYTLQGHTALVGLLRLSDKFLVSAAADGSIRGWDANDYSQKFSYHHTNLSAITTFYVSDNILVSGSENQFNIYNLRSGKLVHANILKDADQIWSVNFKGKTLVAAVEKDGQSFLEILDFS

[5] = biological target: Cdc4^WD40 (isolated WD40 domain of the yeast F-box protein Cdc4, residues 367-744), wild type (yeast) (UniProt P07834); experiment: as above
Cdc4 = conditions: Sic1 phosphorylated on between 4 and 6 low-affinity CPD sites; read-out: Kd of high-affinity Sic1-Cdc4 interaction; cited from earlier work
Text: WD40 domains, and the related Kelch β-propeller domains, mediate protein interactions in many contexts and together form the largest domain family in the human genome. WD40 domain proteins are a predominant class of substrate receptor in the ubiquitin-proteasome system, found in F-box proteins and other subunits of the cullin-RING (CRL) ubiquitin ligases. The WD40 domain of the yeast F-box protein Cdc4 (Cdc4^WD40) recognizes substrates via phosphorylated motifs termed Cdc4 phosphodegrons (CPDs). One of the best characterized Cdc4 substrates is the cyclin dependent kinase inhibitor ...

[6] = biological target: T5, Cdc4^WD40 (isolated WD40 domain of the yeast F-box protein Cdc4, residues 367-744), wild type (yeast, UniProt P07834 367-744); experiment: other fluorescence titration; intrinsic Trp fluorescence (excitation 298 nm, emission 366 nm); 0.5 μM Cdc4, ligand titrated; 50 mM Tris, 150 mM NaCl, 5 mM DTT, pH 7.5, 20 °C; 1:1 stoichiometry assumed; conditions: both partners purified
T5 construct: Cdc4, yeast F-box protein, WD40 domain, residues 367-744; For the NMR experiments the protein was U-[15N,2H], Ile-delta1-[13CH3], Met-epsilon-[13CH3] labelled (IM-labelled); also called wt Cdc4^WD40; Cdc4 WD40 domain; source: E. coli BL21(DE3) codonPlus, purified (Ni-NTA, Ulp protease, Ni-NTA, Superdex 200)
T5 sequence (looked up): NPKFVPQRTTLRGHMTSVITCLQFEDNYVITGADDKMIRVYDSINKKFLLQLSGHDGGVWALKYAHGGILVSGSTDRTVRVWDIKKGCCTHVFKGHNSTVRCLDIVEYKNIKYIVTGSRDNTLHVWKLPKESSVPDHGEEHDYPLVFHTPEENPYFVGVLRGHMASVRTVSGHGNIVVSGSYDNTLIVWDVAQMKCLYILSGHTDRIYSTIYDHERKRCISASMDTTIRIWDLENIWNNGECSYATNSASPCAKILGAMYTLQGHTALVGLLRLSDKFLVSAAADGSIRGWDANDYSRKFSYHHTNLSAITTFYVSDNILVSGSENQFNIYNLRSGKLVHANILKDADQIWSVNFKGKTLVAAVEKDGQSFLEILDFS

R664Q Cdc4^WD40 [7] = biological target: T4, R664Q Cdc4^WD40; experiment: as above; conditions: both partners purified
Cdc4-Skp1 = conditions: read-out: Kd for pSic1-Cdc4-Skp1 by intrinsic tryptophan (Trp) fluorescence; cited from earlier work
[8] = biological target: T5, Cdc4^WD40 (isolated WD40 domain of the …); experiment: ITC; 20 °C; cell 30 μM Cdc4^WD40, syringe 100 μM pSic1; 50 mM Na2HPO4 pH 7.2, 150 mM NaCl, 2 mM β-mercaptoethanol; single-site binding model; conditions: both partners purified
[9] = biological target: T5, Cdc4^WD40 (isolated WD40 domain of the …); experiment: NMR titration; 2D 13C-1H TROSY HMQC at 10 °C on 200 μM IM-labelled Cdc4^WD40 with increasing concentrations of unlabelled ligand; 100% D2O, 50 mM Na2HPO4 pH 8.0, 150 mM NaCl, 2 mM DTT; conditions: both partners purified

CC(=O)NCC(=O)N[C@@H](CC(C)C)C(=O)N[C@@H](CC(C)C)C(=O)N[C@H](C(=O)N1CCC[C@H]1C(=O)N1CCC[C@H]1C(=O)N[C@@H](CCC(N)=O)C(=O)N[C@@H](CO)C(=O)NCC(N)=O)[C@@H](C)OP(=O)(O)O [CycE] (Ac-GLL[pT]PPQSG-NH2; N-terminus and C-terminus assumed)
change of affinity for Arg655Gln Cdc4^WD40 versus wild-type (R655Q Cdc4^WD40 [1]): did not significantly reduce
change of affinity for Arg664Gln Cdc4^WD40 versus wild-type (R664Q Cdc4^WD40 [2]): did not significantly reduce

CycE phosphopeptide (singly phosphorylated high-affinity CPD peptide derived from cyclin E)
Kd (R655Q Cdc4^WD40 [3]): 2900 nM
Kd (R664Q Cdc4^WD40 [4]): 1470 nM
Kd [5]: 2210 nM

B1: Sic1: cyclin dependent kinase inhibitor, Cdc4 substrate; here phosphorylated on 4 to 6 CPD sites (protein, UniProt P38634 1-284, looked up)
Protein SIC1: MTPSTPPRSRGTRYLAQPSGNTSSSALMQGQKTPQKPSQNLVPVTPSTTKSFKNAPLLAPPNSNMGMTSPFNGLTSPQRSPFPKSSVKRTLFQFESHDNGTVREEQEPLGRVNRILFPTQQNVDIDAAEEEEEGEVLLPPSRPTSARQLHLSLERDEFDQTHRKKIIKDVPGTPSDKVITFELAKNWNNNSPKNDARSQESEDEEDIIINPVRVGKNPFASDELVTQEIRNERKRAMLRENPDIEDVITYVNKKGEVVEKRRLTDEEKRRFKPKALFQSRDQEH
modifications: phosphorylated
notes: here phosphorylated on 4 to 6 CPD sites
Kd (Cdc4): ~1000 nM

B2: pSic1 (N-terminal targeting region of Sic1, residues 1-90, phosphorylated to completion by Cln2-Cdc28-Cks1 kinase) (domain or fragment, yeast, UniProt P38634 1-90, looked up)
chain: MTPSTPPRSRGTRYLAQPSGNTSSSALMQGQKTPQKPSQNLVPVTPSTTKSFKNAPLLAPPNSNMGMTSPFNGLTSPQRSPFPKSSVKRT
modifications: phosphorylated to completion by Cln2-Cdc28-Cks1 kinase; contains 7 of the 9 Sic1 CPD sites (the residues are not listed)
notes: also called pSic1 (1-90); pSic1^1-90
Kd (R655Q Cdc4^WD40 [3]; both partners purified): 4160 nM
Kd [6]: 1300 nM
Kd (R664Q Cdc4^WD40 [7]): 4960 nM
Kd (Cdc4-Skp1): 600 nM
Kd [8]: 800 ± 120 nM

B3: Ash1^18pT286/pT290/pS294 triphosphopeptide (unlabelled) (peptide)
peptide: AWSI[pT]PPV[pT]PPM[pS]PPTNR
notes: Ash1 transcriptional repressor, 18-residue peptide printed as AWSIpTPPVpTPPMpSPPTNR; the text says derived from Ash1 residues 283-299; the unlabelled form was used for NMR; also called triply phosphorylated Ash1 peptide; the peptide phosphorylated on all three CPDs
binding result [9]: binds
